{"source": "paper PMC9717613", "about": "(Nature catalysis, 2022)", "proteins": {"B1": {"name": "HsKYNase_66-Ct6XHis (HsKYNase_66 with a C-terminal 6X-Histidine Tag) (enzyme, human)", "chain": "MEPSSLELPADTVQRIAAELKCHPTDERVALHLDEEDKLRHFRECFYIPKIQDLPPVDLSLVNKDEDAIYFNGNSLGLQPKMVKTYLEEELDKWAKIAIYGWFEGDSPWIHYDESIVGLMKDIVGANEKEIVLMNTLTVNLHLLMLSFFKPTPKRYKILLEAKAFPSDHYAIESQLQLHGLNIEESMRIIKPREGEETLRIEDILEVIEKEGDSIAVILFSGIHYYTGQHFNIPAITKAGQAKGCYVGFDLAHAVGNVELYLHDWGVDFACWCGYKYLNSSPGGIAGAFIHEKHAHTIKPALVGWFGHELSTRFKMDNKLQLIPGVCGFRCSTPPILLVCILHASLEIFKQATMKALRKKSVLLTGYLEYLIKHNYGKDKAATKKPVVNIITPSHVEERGCQLTLTFNVPNKDVFQELEKRGVVCDKRNPNGIRVAPVPLYNSFHDVYKFTNLLTSILDSAETKN", "modifications": "PLP cofactor bound as internal aldimine"}}, "biological_target": "the molecule itself", "experiment": "crystal structure", "data": [{"protein": "B1", "values": [{"measurement": "stoichiometry N", "value": 2}]}]}
